In patent US20130071400A1, “LINGO binding molecules and Pharmaceutical Use Thereof” (NOVARTIS AG, priority 2006, published 2013):

Test system: binding of LINGO-1 to NgR
Experiment: AP-LINGO-1 binding assay (AP-LINGO-1 binding to NgR:SH-SY5Y cells)
Set-up: species or system rat
Conditions: 2 μM Fab, 1 nM AP-LINGO-1; normalized to control Fab 3207; p<0.01 (FIG. 1)
Procedure: NgR:SH-SY5Y cells in suspension are incubated with either 1 nM AP or AP-LINGO-1 in the absence or presence of 2 μM of the indicated anti-LINGO-1 Fab or anti-hen lysozyme Fab 3207. Bound AP activity on the cells is measured as absorbance at 405 nm after a 30 min incubation with 1-Step™ PNPP. The specific binding of AP-LINGO-1 is calculated as the difference between the total amount of AP-LINGO-1 binding and the amount of binding with AP alone. The mean percentage inhibition of specific binding (n=3, ±STD) is calculated as the percentile difference between the amount of specific binding of AP-LINGO-1 in the presence of Fab 3207 and the presence of an anti-LINGO-1 Fab.
The PCR product is cleaved with XhoI and XbaI and inserted into the respective sites of the vector APtag-5-NHIS (SEQ ID NO: 26) to generate APtag-5-NHIS-solrLINGO-1. The predicted protein product is the majority of the rat LINGO-1 ectodomain fused at the N-terminus to residues 23-511 of human placental alkaline phosphatase via a 3 amino acid residue linker. […] AP activity of the concentrated supernatant is measured using 1-Step™ PNPP (Pierce) as change in absorbance at 405 nm over time and transformed to a concentration using the following equation (applies for a 96 well plate format with 200 μl PNPP/well): […]

Chain of binding of LINGO-1 to NgR (as listed by the source): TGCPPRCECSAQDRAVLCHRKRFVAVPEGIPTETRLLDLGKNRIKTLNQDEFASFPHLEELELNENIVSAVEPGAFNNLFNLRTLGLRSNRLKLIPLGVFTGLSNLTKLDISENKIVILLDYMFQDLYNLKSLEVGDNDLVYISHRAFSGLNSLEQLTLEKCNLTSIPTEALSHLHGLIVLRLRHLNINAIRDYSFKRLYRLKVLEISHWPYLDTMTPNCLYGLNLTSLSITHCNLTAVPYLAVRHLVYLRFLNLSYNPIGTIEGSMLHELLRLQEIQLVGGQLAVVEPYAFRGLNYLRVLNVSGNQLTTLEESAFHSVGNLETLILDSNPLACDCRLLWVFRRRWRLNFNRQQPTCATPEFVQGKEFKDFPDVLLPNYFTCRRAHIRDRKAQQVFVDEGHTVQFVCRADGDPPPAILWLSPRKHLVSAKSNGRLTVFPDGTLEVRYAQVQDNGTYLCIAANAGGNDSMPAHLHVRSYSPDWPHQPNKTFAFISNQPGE

B1: IgG4 4785: monoclonal human anti-LINGO-1 IgG4 antibody; VL SEQ ID NO: 6, VH SEQ ID NO: 7 (antibody, V domains shown)
VH: QVQLQQSGPGLVKPSQTLSLTCAISGDSVSDNSAAWSWIRQSPGRGLEWLGLIYLRSKWDNDYAVSVKSRITINPDTSKNQFSLQLNSVTPEDTAVYYCARTGRADEFDVWGQGTLVTVSS
VL: DIVLTQPPSVSGAPGQRVTISCSGSSSNIGNNYVSWYQQLPGTAPKLLISRNSKRPSGVPDRFSGSKSGTSASLAITGLQSEDEADYYCSTYDTFSIVFGGGTKLTVLG
modifications: IgG4; 4785 VH; 4785 VL
With B1 the “inhibition of specific AP-LINGO-1 binding to NgR:SH-SY5Y cells” value was “significantly inhibit”.

B2: IgG4 4784: monoclonal human anti-LINGO-1 IgG4 antibody; VL SEQ ID NO: 4, VH SEQ ID NO: 5 (antibody, V domains shown)
VH: QVQLKESGPALVKPTQTLTLTCTFSGFSLSSSGVGVGWIRQPPGKALEWLAHIGSDDDKYYSTSLKTRLTISKDTSKNQVVLTMTNMDPVDTATYYCARNQQYGDGYPGYFDYWGQGTLVTVSS
VL: DIELTQPPSVSVAPGQTARISCSGDNIGNYYVYWYQQKPGQAPVLVIYEDTNRPSGIPERFSGSNSGNTATLTISGTQAEDEADYYCQSYDNLHEQVFGGGTKLTVLG
modifications: IgG4; 4784 VH; 4784 VL
For B2, the “inhibition of specific AP-LINGO-1 binding to NgR:SH-SY5Y cells” value was “significantly inhibit”.
